Patent publication US20260152553A1 (LYELL IMMUNOPHARMA, published 2026)

B1: CD19/CD20 bispecific CAR (Leu16 scFv-(G4S)4-FMC63 scFv-IgG4 hinge-CD28 TM-4-1BB-CD3 zeta) (other)
chain: DIVLTQSPAILSASPGEKVTMTCRASSSVNYMDWYQKKPGSSPKPWIYATSNLASGVPARFSGSGSGTSYSLTISRVEAEDAATYYCQQWSFNPPTFGGGTKLEIKGSTSGGGSGGGSGGGGSSEVQLQQSGAELVKPGASVKMSCKASGYTFTSYNMHWVKQTPGQGLEWIGAIYPGNGDTSYNQKFKGKATLTADKSSSTAYMQLSSLTSEDSADYYCARSNYYGSSYWFFDVWGAGTTVTVSSGGGGSGGGGSGGGGSGGGGSEVKLQESGPGLVAPSQSLSVTCTVSGVSLPDYGVSWIRQPPRKGLEWLGVIWGSETTYYNSALKSRLTIIKDNSKSQVFLKMNSLQTDDTAIYYCAKHYYYGGSYAMDYWGQGTSVTVSSGSTSGSGKPGSGEGSTKGDIQMTQTTSSLSASLGDRVTISCRASQDISKYLNWYQQKPDGTVKLLIYHTSRLHSGVPSRFSGSGSGTDYSLTISNLEQEDIATYFCQQGNTLPYTFGGGTKLEITESKYGPPCPPCPMFWVLVVVGGVLACYSLLVTVAFIIFWVKRGRKKLLYIFKQPFMRPVQTTQEEDGCSCRFPEEEEGGCELRVKFSRSADAPAYQQGQNQLYNELNLGRREEYDVLDKRRGRDPEMGGKPRRKNPQEGLYNELQKDKMAEAYSEIGMKGERRRGKGHDGLYQGLSTATKDTYDALHMQALPPR
B2: CD20 Protein-Biotin (Acros) (other, UniProt P11836 1-297, looked up)
chain: MTTPRNSVNGTFPAEPMKGPIAMQSGPKPLFRRMSSLVGPTQSFFMRESKTLGAVQIMNGLFHIALGGLLMIPAGIYAPICVTVWYPLWGGIMYIISGSLLAATEKNSRKCLVKGKMIMNSLSLFAAISGMILSIMDILNIKISHFLKMESLNFIRAHTPYINIYNCEPANPSEKNSPSTQYCYSIQSLFLGILSVMLIFAFFQELVIAGIVENEWKRTCSRPKSNIVLLSAEEKKEQTIEIKEEVVGLTETSSQPKNEEDIEIIPIQEEEEEETETNFPEPPQDQESSPIENDSSP
modifications: biotin (site not stated)
notes: Bought detection reagent; construct not described

How the values were obtained:
[1] = molecular target: T1, CD19 (human, UniProt P15391 20-556); assay: cell-based or functional assay
T1 sequence (looked up): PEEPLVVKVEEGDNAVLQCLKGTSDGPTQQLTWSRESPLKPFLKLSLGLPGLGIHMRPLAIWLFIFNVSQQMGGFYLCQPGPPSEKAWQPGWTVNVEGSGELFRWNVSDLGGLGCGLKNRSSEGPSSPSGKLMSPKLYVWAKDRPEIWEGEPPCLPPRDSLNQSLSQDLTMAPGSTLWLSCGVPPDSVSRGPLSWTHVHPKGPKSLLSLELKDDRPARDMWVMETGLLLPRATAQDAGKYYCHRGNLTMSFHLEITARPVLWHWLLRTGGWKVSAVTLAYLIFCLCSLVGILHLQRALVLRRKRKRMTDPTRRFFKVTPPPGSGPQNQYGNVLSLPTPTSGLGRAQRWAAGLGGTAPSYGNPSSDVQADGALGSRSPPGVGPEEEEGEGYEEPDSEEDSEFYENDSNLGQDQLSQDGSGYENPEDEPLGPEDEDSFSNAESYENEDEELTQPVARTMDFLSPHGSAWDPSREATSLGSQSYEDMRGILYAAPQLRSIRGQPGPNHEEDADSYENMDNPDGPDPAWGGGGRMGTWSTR

[2] = molecular target: B1; assay: flow cytometry, staining of T cells (donor 1917) transduced with CD19/20 CAR lentiviral vector
Source text: Direct Detection of CAR+ cells by Flow Cytometry. Direct measurement was used to detect expression of CD 19/20 CAR. Because quantification of a tEGFR protein may not provide an accurate measurement of surface CAR expression, tEGFR was removed from the Lentiviral vector as described herein, and instead utilized antibodies which bound to the scFv domains of the CD19/20 CAR protein to report surface CAR expression.

| Binder | IFN-γ and IL-2 production, 1:1 effector:target cell ratio or greater, 24 hours, target cells lacking CD20 [1] | % Positive Cells [2] [%] |
| --- | --- | --- |
| B1 | > 1000 | – |
| B2 | – | 68.1 |
